# Measured values: publication doi:10.1101/2023.08.01.551478, “A feedback control mechanism governs the synthesis of lipid-linked precursors of the bacterial cell wall” (bioRxiv, 2023)
# B1: E. coli MraY(T23P) (enzyme)
# chain: MLVWLAEHLVKYYSGFNVFSYLPFRAIVSLLTALFISLWMGPRMIAHLQKLSFGQVVRNDGPESHFSKRGTPTMGGIMILTAIVISVLLWAYPSNPYVWCVLVVLVGYGVIGFVDDYRKVVRKDTKGLIARWKYFWMSVIALGVAFALYLAGKDTPATQLVVPFFKDVMPQLGLFYILLAYFVIVGTGNAVNLTDGLDGLAIMPTVFVAGGFALVAWATGNMNFASYLHIPYLRHAGELVIVCTAIVGAGLGFLWFNTYPAQVFMGDVGSLALGGALGIIAVLLRQEFLLVIMGGVFVVETLSVILQVGSFKLRGQRIFRMAPIHHHYELKGWPEPRVIVRFWIISLMLVLIGLATLKVR
# notes: MraY (phospho-MurNAc-pentapeptide transferase) of Escherichia coli with the T23P substitution, as it stood in the YES complex for cryo-EM; also called EcMraY(T23P)
# Biological target: the molecule itself
# Assay: cryo-EM structure; YES complex of EcMraY(T23P), protein E and SlyD, obtained with the methodologies of ref. 31; focused refinement of MraY alone; processed with cryosparc v3.2.0
protein,measurement,value
B1,stoichiometry N,2
